Results on one substance are retold here after patent publication US5376640A, “Lipolytic enzyme inhibitors” (Nisshin Flour Milling Co., Ltd., priority 1989, dated 1994).

Assay [1] has as its target Porcine pancreatic lipase (porcine) (UniProt P00591).
Assay [2] shares this target. The source holds these as a separate data set.
Assay [3] has the same target. This is another data set of the same source.
The target is the same in assay [4]. This is another data set of the same source.

In the case of β-purothionin (SEQ ID NO:3) (peptide), the Activity of porcine pancreatic lipase (%) in assay [1] is 0 % of control. Besides, the Activity of porcine pancreatic lipase (%), Tris buffer in assay [2] is 1.3 % of control. Also, in assay [3], the Activity of porcine pancreatic lipase, solution diluted to 0.2 mg/ml worked out at 0%. This substance came in with an Activity of porcine pancreatic lipase, separate experiment at 0.04 mg/ml in assay [4] of 5.2%.
